# Laboratory results reported in the nanobody polyreactivity screen of Harvey et al. (2022).
# Assay: yeast display, Sf9 membrane polyspecificity reagent, FACS + sequencing; frameworks hold sequencing errors
# Summary of the method: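 A synthetic nanobody library was expressed on Saccharomyces cerevisiae BJ5465 by galactose induction for 36–48 hours. The library was stained for 1 hour at 4 °C with 10% biotinylated, detergent-solubilized Sf9 membrane reagent and enriched with streptavidin microbeads before FACS. Low and high (top ~1%) gates were set on anti-HA fluorescence for expression and streptavidin fluorescence for reagent binding, and each polyreactivity label reflects the gate of origin.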
row,Sequence,polyreactivity (PSR sort gate)
1,QVQLVESAGALVQAGGSLRLSCAASGRIFSVYAMGWYRQAPGKERELVATITYNGGSTYYADSVKGRFTISRDNAKNTVYLQMNSLKPEDTAVYYCAADWTYVRFDYWGQGTQVTVSS,low polyreactivity
2,QVQLVESGGGLVQAGGSLRLSCAASGLIFTYYAMGWYRQAPGKERELVAAITSGGTTNYADSVKGRFTISRDNAKNTVYLQMNSLKPEDTAVYYCAADYDTGSERYEYWGQGTQVTVSS,low polyreactivity
3,QVQLVESGGGLVQAGGSLRLSCAASGGIFNINAMGWYRQAPGKERELVASIRGSGGRTYYADSVKGRFTISRDNAKNTVYLQMNSLKPEDTAVYYCNAESYSTWSFGHRYEYDYWGQGTQVTVSS,low polyreactivity
4,QVQLVESGGGLVQAGGSLRLSCAGSGSISYFNAMGWYRQAPGKERELVAAISYSGGSTYYADSVKGRFTISRDNAKNTVYLQMNSLKPEDTAVYYCAADRLIGWRKTYYYWGQGTQVTVSS,high polyreactivity
5,PVQLVDSGGGLVQAGGSLRLSCAASGRIFYGYALGWYRQAPGKERDLDAAIDWSGGSTYADSVTGRFTISRDNAKNTVYLPMHSLKPEDTAVYYCATDWVTSQQPYYWIYEYWGQGTQVTVSS,low polyreactivity
6,QVQLVESGGGLVQAGGSLRLSCPASGRIFLGNLMGWYRQAPGKERELVAAISWSGGSTYADSVKGRFTISRDNAKNTVYFQMNSLKPEDTAVYYCAKDEGTFYNSYDYWGQGTQVTVSS,low polyreactivity
7,QVQLVESGGGLVQAGGSLRLSCAASGFTFSKYAMGWYRQAPGKERELVASIDDGGSTNYADSVKGRFTISRDNAKNTVYLQKNSLKPEDTAVYYCNASYPTGYWYYVIVQYDYWGQGTQVTVSS,low polyreactivity
8,QVQLVESGGGLVQAGGSLRLSCAASGFIFRSYAMGWYRQAPGKERELVAVISRRGVNTHYADSVKGRFTISRDNAKNTVNLQMNSLKPEDTAVYYCAKGLTALGDYWGQGTQVTVSS,high polyreactivity
9,QVQLVESGGGLVQAGGSLRLTCAASGSTFYRYAMGWYRQAPGKERELVAAISTSGGRTYYADSVKGRFTISRDNAKNTVYLQMNSLKPEDTAVYYCAADQYRYYRSTYDYWGQGTQVTVSS,high polyreactivity
10,QVQLVESGGGLVQAGGSLRLSCAASGITFWGYAMGWYRQAPGKEREFVARINWSGGRTYYAESVKGRFTISRDNAKKTVYLQMNSLKPEDTAVYYCAATSRIYGYRTYDDWGQGTQVTVSS,high polyreactivity
11,QVQLVESGGCLVQAGGTLRLSCAASGFTIRSNAMGWYRQAPGKERELVADISHGGGTSYADSVKGRFTISRDNAKNTVYLQRNSLKPEDTAVYYCAADLSTYVNYWWEYYYWGQGSQVTVSS,low polyreactivity
12,QVQLVESGGGLVQAGGSLRLSCSASGITSKNYAMGCYRQAPGKERELVAVISGRGGSTYYADSVKGRFTISRDNAKNTVYLQMNSLKPVDTAVYYCAAYGNQRRGAYPYKYDYWGQGTQVTVSS,high polyreactivity
13,QVKLVESGGGLVQAGGSLRLSCAASGRTFPSYAMGWYRQAPGKERELVAAISRSGGSTYYADSVKGRFTISRDNAKNPVYLQMNSLKPEDTAVYYCAAVSRVHFSYIYDYWGQGTQVTVSS,high polyreactivity
14,QVQLQESGGGLVQAGGSLRLSCAATGRTFRYNTMGWYRKATGKERELVARITWSGGSTYYADSVKGRFTISRDNAKNTVYLQMNSLKPEDTAVYYCAAVPILVYRWFQSYTGDYDYWGQGTQVTVSS,low polyreactivity
15,QVQLVESGGGLVQAGGSLRLSCAASGSTFSTYAMGWYRQAPGKERELVARITRSDTGTYYADSVKGRFTISRDNAKNTGYLQMNSLKPEDTAVYYCAADGWYDDSGWYYGYDYWGQGTQVTVSS,low polyreactivity
16,QVQLLESRGGLVQAGGSLRLSCPASGITFSRCAMGWYRQAPGKERELVAAITSGGRTNYADSVKGRFTISRDNATNTVYLQMISLKPEDTAVYYCAASYYYLSWRMDYWGQGTQVTVSS,high polyreactivity
17,QVQLVESGGGLVQAGGSLRLSCAASGSTFYYYAMGWYRQAPGKEMELVAAISGSGGNTYYADSVKGRFTISRDNAKNTVYLQMNSLKPEDTAVYYCAADYGYPLGVSWYGYGYWGQGTQVTVSS,low polyreactivity
18,QVQLVESGGGLVQAGGSLRLSCAASGITFGGNAMGWYRQAPGKEMELVAAISWNGGRTYYADSVKGRFTISRDNAKNTVYLQMNSLKPEDTAVYYCNTPVFSKSSRKYYYWGQGTQVTVSS,high polyreactivity
19,QVQLVESGGGLVQAGGSLRLSCAASGSTLAIYAMGCYRQAPGKERELVASISRVGSTNYADSVKGRFTISRDNAKNTVYLQMNSRIPEDTAVYYCAARRWSYVILRAYYYWGQGTQETVSS,high polyreactivity
20,QVQLQESVGGLVQAGGSLRLSCAASGNIFPTDRMGWYRQAPGKELEFVATISHGGSTNYADSVKGRFTISRDNAKNTVYLQMNSLKPEDTAVYYCAVWSLGRWRHYYWGQVTQVTVSS,low polyreactivity

row,Sequence,polyreactivity (PSR sort gate)
1,QVQLVESGGGLVQAGGSLRLSCAASGRTFYYYAKGWYRQAPGKERELVARISRCGSTNYADSVKGRFTISRDNAKNTVYLQMISLKPEDSAVYYCAAGWRGGRYRYFAYDYWGQGTQVTVSS,high polyreactivity
2,QVQLVESGGGLVQAGGSLRLSCAASGITFNPNAMGWYRQAPGKERELVAVITYRGGSTYYADSVKGRFTISRDNAKNTVYLQMNSLKPEDTAVYYCAAQYIGWHLYWYDYWGQGTQVTVSS,low polyreactivity
3,QVQLVESGGGLVQAGGSLRLSCAASGSIFFSNAMGWYRQAPGKERELVASISRDVSTNYADSVKGRFTISRDNAKNTVYLQMTSLKPEDTAVYYCAKRYYRYYYITYNGSHYGYWGQGTQVTVSS,low polyreactivity
4,QVQLVESGGGLVQAGGSLRLSCAASGGIFSRYAMGWYRQAPGKEREFVAAISFSGASTYYADSVKGRFTISRDNAKNTVYLQMNSLKPEDTAVYYCAAYWDAEGRRYTRLDYWGQGTQVTVSS,low polyreactivity
5,QVQLVESGGGLVQAGGSLRLSCAASGSIFIVNVMGWYRQAPGKERELVAGITTNGGITYYADSVKGRFTISRDNAKNTVYLQMNSLKPEDTAVYYCATRSGSPSSIEMDYWGQGTQVTVSS,low polyreactivity
6,QVQLVESGGGLVQAGGSLRLSCAASGRIFKWNAMGWYRQAPGKERELVAAISLSGGSTYYADSVKGRFTISRDKAKNTVYLQMNSLKPEDTAVYYCNAYAYHRYGYWGQGTQVTVSS,high polyreactivity
7,QVQLVESGGGLVQAGGSLRLSCAASGSIFLKYAMGWYRQAPGKERELVATISRGGITYYADSVKGRFTISRDNAKNTVYLQMNSLKPEDTAVYYCATTGGRQYGYWGQGTQVTVSS,high polyreactivity
8,QVQLVESGGGLVQAGGSLRLSCAASGLTCRYNAMGWYRQAPGKERELVAGIRISGGNTRYADAVKGRCTISRDNAKKSVYLQMNSLKPEDTAVYYCSALTGFYNLRPYGYWGQGTQVTVSS,high polyreactivity
9,QVQLVDSGGGLVQAGGTLSLSCAASGRTFWWYARGWSRQAPGTERELVDAITNFGSTNYADSVKGRFSISRDNAKNTVYLQKNSLKPEDTAVYYCAALTRCWYGGFYQYYYLGQGTQVTVSS,high polyreactivity
10,QVQLVESGGGLVQAGGSLRLSCAASGIIFFSYAMGWYRQAPGKERELVAAISGTGGNTYYADSVKGRFTISRDNAKNTVYLQMNSLKPEDTAVYYCAADQEWYYYFDSFAYYILGYWGQGTQVTVSS,high polyreactivity
11,QVQLVESGGGLVQAGGSLRLSCAASGSIFNLYAMGWYRQAPGKERELVAAINWSGGSTYYADSVKGRFTISRDNAKNTVYLQMNSLKPEDTAVYYCAADAYSTYYGYEGDYWGQGTQVTVSS,low polyreactivity
12,QLQLVQSGGGLVQAGGILRLSCAPSGSIFTPNTMGWYSQAPGKERELVAAITIRGGSTYYADSVKGSFTISRDNANITVYLQMNSLKPEDTAVYYCATEYGLRYYLVDYWGQGTQVTVSS,low polyreactivity
13,QVQLVESVGGLVQAGGSLRLSCAASGFIFNPYAMGWYRQAPGKERELVAAISWRGASTYYADSVKGRFTISRDNAKNTVYLQMNSLNPEDTAVYYCAADLAYSSTASDYEYWGQGTQVTVSS,low polyreactivity
14,QVQLVESGGGLVQAGGSLRLSCAASGYIFGIYAMGWYRQAPGKERELVAAISTSGGSKYYADSVKGRFTISRDTAKNTVYLQMNSLKPEDTAVYYCAASRPSPRPRYGYWGQGTQVTVSS,high polyreactivity
15,QVQLVESGGGLVQAGGSLRLSCAASGSIIFLYAMGWYRQAPGKERELVASISTSGTTITYYADSVKGRFTISRDNAKNTVYLQMNSLKPEDTAVYYCAADTLYYPYDYWGQGTQVTVSS,low polyreactivity
16,QVQLVESGGGLVQAGGSLRLSCAASGFIFSRYPMGWYRQAPGKERELVASISWRGGSTSYADSVKGRFTISRDNAKNTVYLQMNSLKPEDTAVYYCAASSRQVLEYDYWGQGTQVTVSS,high polyreactivity
17,QDQLVESGGGLVQAGGSLRLSCAASGSTFPDYAMGRYRQAPGKERELFAAISSGGSTNYADSVKGRFTISRDNAKNTVYLQMNSLKPEDTAVYYCAADVGAIYDKAVNGYWGQGTQVTVSS,low polyreactivity
18,QVQLVESGGGLVQAGGSLRLSCAASGSTFRGNAMGWYRQAPGKERELVAAISSSGGSTNYADSVKGRFTISRDNAKNTVYLQMNSLKPEDTAVYYCAAERYFVWPFLLKYDYWGQGTQVTVSS,low polyreactivity
19,QVQLVESGGGLVQAGGSLRLSCAASGITFRSYAMGWYRQAPGKERELVAAISSTGRTYYADSVKGRFTISRDNAKNTVYLQMNSLKPEDTAGYYCNAKRYIWGQGTQVTVSS,high polyreactivity
20,QVQLVESGGGLVQAGGSLRLSCAASGSIFVNNAMGWYRQAPGKERELVAAIRRSGGNTYYADSVKGRFTISRDNAKNTVYLQLNSLKPEDTAVYYCNVVRRSDSIRAKSRDYWGQGTQVTVSS,high polyreactivity
